Data taken from publication PMC4726326, “The Arabidopsis glutamyl-tRNA reductase (GluTR) forms a ternary complex with FLU and GluTR-binding protein” (Scientific Reports, 2016).

B1: Arabidopsis glutamyl-tRNA reductase (GluTR), residues 73-543 (enzyme, Arabidopsis thaliana, UniProt P42804 73-543, looked up)
chain: AASISALEQLKNSAADRYTKERSSIVVIGLSIHTAPVEMREKLAIPEAEWPRAIAELCGLNHIEEAAVLSTCNRMEIYVLALSQHRGVKEVTEWMSKTSGIPVSEICQHRFLLYNKDATQHIFEVSAGLDSLVLGEGQILAQVKQVVKVGQGVNGFGRNISGLFKHAITVGKRVRTETNIASGAVSVSSAAVELALMKLPQSSNVSARMCVIGAGKMGKLVIKHLMAKGCTKVVVVNRSEERVSAIREEMPGIEIIYRPLDEMLACASEADVVFTSTASETPLFLKEHVENLPQASPEVGGLRHFVDISVPRNVGSCVGEVETARVYNVDDLKEVVAANKEDRMRKAMEAQTIITEESTQFEAWRDSLETVPTIKKLRAYAERIRVAELEKCMSKMGDDINKKTTRAVDDLSRGIVNRFLHGPMQHLRCDGSDSRTLSETLENMHALNRMYGLEKDILEEKLKAMAEQQQK
notes: Expression vector pMAL-c5X; GluTR dimer fractions were collected from the gel filtration

Assays:
[1] = biological target: the molecule itself; experiment: crystal structure; FLU^TPR-GluTR-GBP ternary complex, space group C2, 3.2 Å, PDB 5CHE; sitting drop, 16 °C
[2] = biological target: B1; experiment: SEC; purified GluTR, GBP and FLU^TPR mixed at molar ratio 2:3:3, 1 hour at 4 °C; HiLoad 16/60 Superdex 200 pg; 20 mM Tris-HCl pH 7.5, 200 mM NaCl, 4 mM dithiothreitol; conditions: both partners purified
[3] = biological target: B1; experiment: ITC; MicroCal iTC200, 25 °C; 20 mM Tris-HCl pH 7.5, 150 mM NaCl; 20 injections of 2 μl of 0.5 mM protein into 200 μl of 50 μM protein; one-site binding model; apparent Kd; conditions: both partners purified

Binder	binding result [1]	binding result [2]	stoichiometry N [1]	Kd [3] [nM]
C-terminal tetratricopeptide-repeat domain of Arabidopsis FLUORESCENT (FLU), residues 195-316 (domain or fragment, Arabidopsis thaliana, UniProt Q940U6 195-316, looked up, FLUORESCENT (FLU), Arabidopsis thaliana, At3g14110, truncation of residues 195-316 (TPR domain); Expression vector pET-22b(+); also called FLU^TPR; the recombinant TPR domain of FLU) IVEPKKQELISKLKTGKTFLRNQEPEKAYTEFKIALELAQSLKDPTEEKKAARGLGASLQRQGKYREAIQYHSMVLAISKRESEDSGITEAYGAIADCYTELGDLEKAGKFYDTYIARLETD	binds	binds		
B1			2	
Arabidopsis GluTR-binding protein (GBP), residues 42-317 (natural protein, Arabidopsis thaliana, UniProt Q9LU39 42-317, looked up, Expression vector pET-28a(+)) CSVSTTLDTPATASTHKPFPAEVSRSIMELSSVGTLSTLTHDGWPLGVGVRFAVDKDGTPVLCLNRSVSPDKRSALHVQLEQCGLRTPQCTIQGSIGRPGDDTVLKRLSATWREKFGEEVKEDSLYVVAVDRVLQMEDFMEDGIWVASSDYKNASPDPLRDIAEDIVNQINANNMEDIFRFCNVYVDLDFVVSETKMIWMDRLGFDLRVWSPRGVYDVRIPFPMEVTDEKGAKSSFNGMSQLAWEVEKSYCPADFNKVKLLKQVVGSSHSHKGGGQ	binds			41.3 ± 3.7
